Measured values reported in IntAct's records for PubMed 19122675.

B1: Calmodulin-binding transcription activator 3 (Arabidopsis thaliana (Mouse-ear cress)), Q8GSA7 (parent)
chain: MAEARRFSPVHELDVGQILSEARHRWLRPPEICEILQNYQRFQISTEPPTTPSSGSVFMFDRKVLRYFRKDGHNWRKKKDGKTVKEAHERLKAGSVDVLHCYYAHGQDNENFQRRSYWLLQEELSHIVFVHYLEVKGSRVSTSFNRMQRTEDAARSPQETGDALTSEHDGYASCSFNQNDHSNHSQTTDSASVNGFHSPELEDAESAYNQHGSSTAYSHQELQQPATGGNLTGFDPYYQISLTPRDSYQKELRTIPVTDSSIMVDKSKTINSPGVTNGLKNRKSIDSQTWEEILGNCGSGVEALPLQPNSEHEVLDQILESSFTMQDFASLQESMVKSQNQELNSGLTSDRTVWFQGQDMELNAISNLASNEKAPYLSTMKQHLLHGALGEEGLKKMDSFNRWMSKELGDVGVIADANESFTQSSSRTYWEEVESEDGSNGHNSRRDMDGYVMSPSLSKEQLFSINDFSPSWAYVGCEVVVFVTGKFLKTREETEIGEWSCMFGQTEVPADVISNGILQCVAPMHEAGRVPFYVTCSNRLACSEVREFEYKVAESQVFDREADDESTIDILEARFVKLLCSKSENTSPVSGNDSDLSQLSEKISLLLFENDDQLDQMLMNEISQENMKNNLLQEFLKESLHSWLLQKIAEGGKGPSVLDEGGQGVLHFAASLGYNWALEPTIIAGVSVDFRDVNGWTALHWAAFFGRERIIGSLIALGAAPGTLTDPNPDFPSGSTPSDLAYANGHKGIAGYLSEYALRAHVSLLSLNDKNAETVEMAPSPSSSSLTDSLTAVRNATQAAARIHQVFRAQSFQKKQLKEFGDKKLGMSEERALSMLAPKTHKSGRAHSDDSVQAAAIRIQNKFRGYKGRKDYLITRQRIIKIQAHVRGYQFRKNYRKIIWSVGVLEKVILRWRRKGAGLRGFKSEALVEKMQDGTEKEEDDDFFKQGRKQTEDRLQKALARVKSMVQYPEARDQYRRLLNVVNDIQESKVEKALENSEATCFDDDDDLIDIEALLEDDDTLMLPMSSSLWTS

Variants of: B1
Settings: with calm5_soltu PCM5, Q7DMN9

effect of a mutation on the interaction	Variant
disrupting interaction	K907E
